Data on 1 substance can be found in patent US20030017596A1.

The assay concerns the target Recombinant B19 parvovirus empty capsid particles (VP1/2) (B19 parvovirus) (UniProt P07299). The experiment in a line: cell-based or functional assay.

For the substance “anti-B19 parvovirus monoclonal antibody (MAB8292)”, the BFU-E colony counts (% of medium control), fetal liver cells; capsid 7 µg/ml + 0.02 µg/mL Mab (capsid only: 43%) (% of medium control) was 52; the BFU-E colony counts (% of medium control), fetal liver cells; capsid 7 µg/ml + 0.2 µg/mL Mab (capsid only: 43%) (% of medium control) turned out to be 52; the BFU-E colony counts (% of medium control), fetal liver cells; capsid 7 µg/ml + 2.0 µg/mL Mab (capsid only: 43%) (% of medium control) turned out to be 69; the BFU-E colony counts (% of medium control), fetal liver cells; capsid 7 µg/ml + 20.0 µg/mL Mab (capsid only: 43%) (% of medium control) is over 100. For the same substance, the CFU-GEMM colony counts (% of medium control), fetal liver cells; capsid 7 µg/ml + 0.02 µg/mL Mab (capsid only: 21%) (% of medium control) turned out to be 21; the CFU-GEMM colony counts (% of medium control), fetal liver cells; capsid 7 µg/ml + 0.2 µg/mL Mab (capsid only: 21%) (% of medium control) was found to be 19; the CFU-GEMM colony counts (% of medium control), fetal liver cells; capsid 7 µg/ml + 2.0 µg/mL Mab (capsid only: 21%) (% of medium control) was found to be 45; the CFU-GEMM colony counts (% of medium control), fetal liver cells; capsid 7 µg/ml + 20.0 µg/mL Mab (capsid only: 21%) (% of medium control) was found to be 67. In addition, the CFU-GM colony counts (% of medium control), fetal liver cells; capsid 7 µg/ml + 0.02 µg/mL Mab (capsid only: 30%) (% of medium control) was 30; the CFU-GM colony counts (% of medium control), fetal liver cells; capsid 7 µg/ml + 0.2 µg/mL Mab (capsid only: 30%) (% of medium control) is 21; the CFU-GM colony counts (% of medium control), fetal liver cells; capsid 7 µg/ml + 2.0 µg/mL Mab (capsid only: 30%) (% of medium control) was 35; the CFU-GM colony counts (% of medium control), fetal liver cells; capsid 7 µg/ml + 20.0 µg/mL Mab (capsid only: 30%) (% of medium control) turned out to be 74.
